The record followed here is article PMC8186250.

The target of the data set is EBNA1 DBD WT (Epstein-Barr virus (B95-8), UniProt P03211 459-607). Nature of the data set: SDS-EMSA.
Sequence of EBNA1 DBD WT (P03211 459-607): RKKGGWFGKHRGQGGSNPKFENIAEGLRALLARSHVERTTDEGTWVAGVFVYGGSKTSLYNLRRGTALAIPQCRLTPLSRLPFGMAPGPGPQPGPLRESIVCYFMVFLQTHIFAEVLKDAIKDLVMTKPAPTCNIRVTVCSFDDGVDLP

B1: 2xFR (dsDNA)
DNA 1: ATTAGGATAGCCTATGCTACCCAGATATAGATTAGGATAGCATATGCTACCCAGATATAGAGAGCGTCACCTAAGCC
DNA 2: GGCTTAGGTGACGCTCTATATCTGGGTAGCATATGCTATCCTAATCTATATCTGGGTAGCATAGGCTATCCTAAT
On to B1, for which the binding result is “binds”.
